Experimental data from US20240182547A1 (MOGAM INSTITUTE FOR BIOMEDICAL RESEARCH, published 2024).
Changes are numbered by the printed parent chain.

B1: 4H1 (antibody, V domains shown)
VH: EVQLVESGGGLVKPGGSLRLSCAGSGFTFSSYTMHWVRQAPGKGLEWVSSITGGSSYVDYSASVKGRFTISRDNAQSSLYLQMNSLRAEDTAVYYCARDDYGSGSYSNWFDPWGQGTLVTVSS
VL: QSVLTQPPSVSGAPGQRVTISCTGSSSNIGAGYDVHWYQQVPGTAPKLLIFGSTNRPSGVPDRFSGSKSGASASLAITGLQADDEADYYCQPYDRSLSHVFGTGTKVTVLR
notes: IgG made in Expi293; also called #3
B2: 4H5 (antibody, V domains shown)
VH: B1 VH
VL: B1 VL with V41L, T44A, K47R, I50M, S53N, T54S, A71T, D83E, P92S, R111G
notes: IgG made in Expi293
B3: 2G1 (antibody, V domains shown)
VH: QVTLKESGGGLVKPGGSLRLSCAASGFTFTSYRMHWVRQAPGKGLEWVSSITGGGNYIEYADSVKGRFTISRDNAKNSLDLQMNSLRAEDTAIYYCARDMYGLGSYYSPNYFDPWGQGTLVTVSS
VL: B1 VL with V41L, A82T, D83E, P92S, R111G
notes: IgG made in Expi293; also called #21; 21
B4: 2H8 (antibody, V domains shown)
VH: B3 VH with Q1E, T3Q, K5V, V12A
VL: B1 VL with V41L, T44A, K47R, I50M, S53N, T54S, A71T, D83E, P92S, R111G
notes: IgG made in Expi293; also called #26; 26
B5: 2E7 (antibody, V domains shown)
VH: B1 VH
VL: SYELTQPPSASGTPGQRVTISCTGSSSNIGAGYDVHWYQQLPGAAPRLLMFGNSNRPSGVPDRFSGSKSGTSASLAITGLQADDEADYYCQSYDRSLSHVFGTGTKVTVLG
notes: IgG made in Expi293; also called #6
B6: 1E6 (antibody, V domains shown)
VH: B3 VH with Q1E, T3Q, K5V
VL: B1 VL with V41L, T44R, G52A, S53N, P92S, R111G
notes: IgG made in Expi293; also called #22; 22
B7: 13C2 (antibody, V domains shown)
VH: B3 VH with Q1E, T3Q, K5V
VL: B1 VL with N55D, A71N, S72T, A76T, T78S, D83E, P92S, R111G
notes: IgG made in Expi293; also called #25; 25
B8: 4G1 (antibody, V domains shown)
VH: QVTLKESGGGLVKPGGSLRLSCAASGFRLSSYGMNWVRQAPGKGLEWVSSISASSSFINYADSVRDRFTISRDNAKNSLYLQMNSLRAEDTAVYYCARDDYGSGSYSNWFDPWGQGTLVTVSS
VL: B1 VL with S25N, I29L, V41L, T44R, G52A, S53N, G79S, P92S, R111G
notes: IgG made in Expi293; also called #33; 33
B9: 4E3 (antibody, V domains shown)
VH: B1 VH
VL: B1 VL with P92S, R111G
notes: IgG made in Expi293
B10: #33m (antibody, V domains shown)
VH: B8 VH with Q1E, T3Q, K5V
VL: B1 VL with S25N, I29L, V41L, T44R, G52A, S53N, G79S, P92S, R111G
notes: Germline-edited (m) form of 4G1, heavy chain edited; IgG; also called 4G1 (modified)
B11: 13H9 (antibody, V domains shown)
VH: QVQLVQSGAEVKKPGASVKVSCKASGYTGYTFTDYGLSWVRQAPGHGLEWMGWITAYNGDTNYAQKFQDRLSVTTDISTSTAYMELRSLKSDDTAVYYCARHVFCSGDGCYSGLGSWGQGTLVTVSS
VL: SYELIQPPSASGAPGQRVIISCSGSSSNVGSNTVNWYQQLPGTAPKLLIYDKNERPSGVPDRFSASKSGTSASLAISGLQSEDEADYYCAAWDDSLNGWVFGGGTELTVLG
notes: IgG made in Expi293; also called #47; 47
B12: #47m (antibody, V domains shown)
VH: B11 VH
VL: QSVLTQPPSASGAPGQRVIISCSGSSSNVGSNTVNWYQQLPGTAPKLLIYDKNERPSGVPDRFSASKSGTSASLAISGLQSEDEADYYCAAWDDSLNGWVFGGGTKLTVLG
notes: Germline-edited (m) form of 13H9, light chain edited; IgG; also called 13H9 (modified)
B13: 12F7 (antibody, V domains shown)
VH: QMQLVQSGPEVKKPGSSVKVSCKASGYTFTDYGLSWVRQAPGHGLEWMGWITAYNGDTNYAQKFQDRLSVTTDISTSTAYMELRSLKSDDTAVYYCARHVFCSGDGCYSGLGSWGQGTLVTVSS
VL: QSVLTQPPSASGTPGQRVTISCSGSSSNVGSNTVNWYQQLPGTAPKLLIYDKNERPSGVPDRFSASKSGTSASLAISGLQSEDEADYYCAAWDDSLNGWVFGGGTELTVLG
notes: IgG made in Expi293; also called #38; 38
B14: #46m (antibody, V domains shown)
VH: B13 VH with M2V
VL: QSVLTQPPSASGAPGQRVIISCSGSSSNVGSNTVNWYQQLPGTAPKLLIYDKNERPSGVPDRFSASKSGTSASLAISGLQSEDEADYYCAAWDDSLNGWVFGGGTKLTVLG
notes: Germline-edited (m) form of 2E8, light chain edited; IgG; also called 2E8 (modified)
B15: 12C10 (antibody, V domains shown)
VH: B13 VH with M2V, P9S, S16A
VL: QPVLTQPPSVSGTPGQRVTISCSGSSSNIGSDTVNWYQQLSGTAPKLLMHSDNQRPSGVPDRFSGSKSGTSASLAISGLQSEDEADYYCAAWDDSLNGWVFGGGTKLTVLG
notes: IgG made in Expi293; also called #42; 42
B16: 4H11 (antibody, V domains shown)
VH: B13 VH with M2V, P9A, S16A
VL: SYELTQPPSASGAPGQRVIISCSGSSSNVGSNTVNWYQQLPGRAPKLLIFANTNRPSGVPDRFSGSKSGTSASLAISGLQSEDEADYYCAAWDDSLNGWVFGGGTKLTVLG
notes: IgG made in Expi293; also called #40; 40
B17: 4G5 (antibody, V domains shown)
VH: B13 VH with M2V, P9S, S16A
VL: not shown
notes: IgG made in Expi293; also called #45; 45
B18: #42m (antibody, V domains shown)
VH: B13 VH with M2V, P9S, S16A
VL: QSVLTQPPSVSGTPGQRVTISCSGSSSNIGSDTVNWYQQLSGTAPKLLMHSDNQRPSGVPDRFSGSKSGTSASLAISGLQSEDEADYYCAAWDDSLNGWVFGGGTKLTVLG
notes: Germline-edited (m) form of 12C10, light chain edited; IgG; also called 12C10 (modified)
B19: 3E7 (antibody, V domains shown)
VH: B13 VH with Q1E, M2V, Q6E, P9T, S16A
VL: QSVLTQPPSASGAPGQRVIISCSGSSSNVGSNTVNWYQQLPGTAPKLLIYDKNERPSGVPDRFSASKSGTSSSLAIGGLRSEDEADYYCGTWDDNLNGWVFGGGTKLTVLG
notes: IgG made in Expi293; also called #51; 51
B20: 4H7 (antibody, V domains shown)
VH: B13 VH with M2V, P9A, S16A
VL: B19 VL with Q1S, S2Y, V3E, G90A
notes: IgG made in Expi293; also called #49; 49
B21: #41m (antibody, V domains shown)
VH: B13 VH with M2V, P9A, S16A
VL: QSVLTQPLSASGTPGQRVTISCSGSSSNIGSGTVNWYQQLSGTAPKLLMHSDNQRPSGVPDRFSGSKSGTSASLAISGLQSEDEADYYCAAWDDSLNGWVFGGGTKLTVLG
notes: Germline-edited (m) form of 2G3, light chain edited; IgG; also called 2G3 (modified)
B22: #49m (antibody, V domains shown)
VH: B13 VH with M2V, P9A, S16A
VL: B19 VL with G90A
notes: Germline-edited (m) form of 4H7, light chain edited; IgG; also called 4H7 (modified)
B23: 2G3 (antibody, V domains shown)
VH: B13 VH with M2V, P9A, S16A
VL: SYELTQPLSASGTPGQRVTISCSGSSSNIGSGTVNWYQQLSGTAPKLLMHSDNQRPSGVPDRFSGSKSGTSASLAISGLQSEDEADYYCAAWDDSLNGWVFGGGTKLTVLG
notes: IgG made in Expi293; also called #41; 41
B24: 3E8 (antibody, V domains shown)
VH: B13 VH with M2V, P9S, S16A
VL: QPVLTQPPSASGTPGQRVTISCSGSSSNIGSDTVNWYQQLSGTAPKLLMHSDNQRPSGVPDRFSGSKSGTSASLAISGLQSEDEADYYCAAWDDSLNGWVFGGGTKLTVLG
notes: IgG made in Expi293; also called #43; 43
B25: 4E9 (antibody, V domains shown)
VH: B13 VH with M2V, P9A
VL: B19 VL with A10V, I19T
notes: IgG made in Expi293; also called #48; 48
B26: #38m (antibody, V domains shown)
VH: B13 VH with M2V, P9A, S16A
VL: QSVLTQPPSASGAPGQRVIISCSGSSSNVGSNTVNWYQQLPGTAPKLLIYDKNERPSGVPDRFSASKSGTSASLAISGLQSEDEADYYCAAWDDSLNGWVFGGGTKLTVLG
notes: Germline-edited (m) form of 12F7, heavy and light chain edited; IgG; also called 12F7 (modified)
B27: #51m (antibody, V domains shown)
VH: B13 VH with Q1E, M2V, P9A, S16A
VL: B19 VL
notes: Germline-edited (m) form of 3E7, heavy chain edited; IgG; also called 3E7 (modified)
B28: 2E8 (antibody, V domains shown)
VH: B13 VH with M2V
VL: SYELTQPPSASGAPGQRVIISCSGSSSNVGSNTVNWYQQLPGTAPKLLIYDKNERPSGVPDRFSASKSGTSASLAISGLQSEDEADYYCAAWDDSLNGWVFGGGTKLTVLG
notes: IgG made in Expi293; also called #46; 46
B29: #50m (antibody, V domains shown)
VH: B13 VH with M2V, P9A, S16A
VL: B19 VL
notes: Germline-edited (m) form of 2F8, light chain edited; IgG; also called 2F8 (modified)
B30: #40m (antibody, V domains shown)
VH: B13 VH with M2V, P9A, S16A
VL: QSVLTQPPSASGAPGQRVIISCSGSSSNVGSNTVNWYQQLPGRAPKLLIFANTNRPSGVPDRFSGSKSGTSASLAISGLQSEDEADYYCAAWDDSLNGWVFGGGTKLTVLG
notes: Germline-edited (m) form of 4H11, light chain edited; IgG; also called 4H11 (modified)
B31: #45m (antibody, V domains shown)
VH: B13 VH with M2V, P9S, S16A
VL: not shown
notes: Germline-edited (m) form of 4G5, light chain edited; IgG; also called 4G5 (modified)
B32: 2H11 (antibody, V domains shown)
VH: B3 VH with T3Q, K5V, E6Q, L120T
VL: QSVLTQPPSVSGAPGQRVTISCTGSSSNIGAGYDVHWYQQLPGRAPKLLIFANTNRPSGVPDRFSGSKSGASASLAISGLQAEDEAHYYCQSYDRSLNVVFGGGTELTVLG
notes: IgG made in Expi293; also called #23; 23
B33: 2F1 (antibody, V domains shown)
VH: B3 VH with Q1E, T3Q, K5V
VL: QSVLTQPPSVSGAPGQRVTISCTGSSSNIGAGYDVHWYQQVPGTAPKLLIFGSTNRPSGVPDRFSGSKSGASASLAITGLQTEDEADYYCQSYDRSLSAWVFGGGTKLTVLG
notes: IgG made in Expi293; also called #24; 24
B34: #27m (antibody, V domains shown)
VH: B3 VH with Q1E, T3Q, K5V, P114S
VL: B5 VL with S1Q, Y2S, E3V, A10V, T13A, D83E, R95S, H99Y
notes: Germline-edited (m) form of 10A6, light chain edited; IgG; also called 10A6 (modified)
B35: 10A6 (antibody, V domains shown)
VH: B3 VH with Q1E, T3Q, K5V, P114S
VL: B5 VL with A10V, T13A, D83E, R95S, H99Y
notes: IgG made in Expi293; also called #27; 27
B36: 4G2 (antibody, V domains shown)
VH: B3 VH with Q1E, T3Q, K5V
VL: B5 VL with S1Q, Y2S, E3V, A10V, T13A, D83E, R95S
notes: IgG made in Expi293; also called #28; 28
B37: 2G11 (antibody, V domains shown)
VH: B3 VH with Q1E, T3Q, K5V, K13Q
VL: B5 VL with S1Q, Y2S, E3V, A10V, T13A, D83E, R95S, H99Y
notes: IgG made in Expi293; also called #29; 29

Molecular target: DS-Cav1 (RSV F-protein, pre-form, in-house) (respiratory syncytial virus (RSV), UniProt P03420 26-513)
Assay: ELISA, coated DS-Cav1, IgG titrated

Sequence of DS-Cav1 (RSV F-protein, pre-form, in-house) (P03420 26-524): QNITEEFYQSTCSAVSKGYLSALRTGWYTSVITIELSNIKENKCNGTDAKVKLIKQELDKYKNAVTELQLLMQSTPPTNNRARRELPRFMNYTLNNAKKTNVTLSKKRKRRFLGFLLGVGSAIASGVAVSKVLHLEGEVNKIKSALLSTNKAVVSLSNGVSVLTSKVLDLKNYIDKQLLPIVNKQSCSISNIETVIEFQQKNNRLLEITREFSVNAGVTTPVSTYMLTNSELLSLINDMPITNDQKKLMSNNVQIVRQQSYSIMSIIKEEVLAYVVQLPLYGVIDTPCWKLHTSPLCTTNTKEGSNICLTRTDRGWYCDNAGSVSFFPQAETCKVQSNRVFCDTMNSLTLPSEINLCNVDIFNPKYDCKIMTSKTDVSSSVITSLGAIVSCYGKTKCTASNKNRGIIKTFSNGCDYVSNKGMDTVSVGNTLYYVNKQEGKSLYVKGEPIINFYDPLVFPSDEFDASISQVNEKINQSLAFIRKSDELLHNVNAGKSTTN

| Binder | Kd [nM] |
| --- | --- |
| B1 | ~1.73 |
| B2 | ~0.23 |
| B3 | ~0.55 |
| B4 | ~0.42 |
| B5 | ~0.4 |
| B6 | ~0.34 |
| B7 | ~1.16 |
| B8 | ~0.27 |
| B9 | ~0.33 |
| B10 | ~0.97 |
| B11 | ~0.61 |
| B12 | ~0.94 |
| B13 | ~0.27 |
| B14 | ~1.26 |
| B15 | ~0.44 |
| B16 | ~0.39 |
| B17 | ~0.67 |
| B18 | ~1.25 |
| B19 | ~0.37 |

| Binder | Kd [nM] |
| --- | --- |
| B20 | ~2.15 |
| B21 | ~1.23 |
| B22 | ~1.11 |
| B23 | ~2.11 |
| B24 | ~0.45 |
| B25 | ~0.7 |
| B26 | ~1.24 |
| B27 | ~1.26 |
| B28 | ~0.47 |
| B29 | ~1.08 |
| B30 | ~1.25 |
| B31 | ~0.95 |
| B32 | ~0.45 |
| B33 | ~0.66 |
| B34 | ~1.41 |
| B35 | ~1.56 |
| B36 | ~1.05 |
| B37 | ~0.85 |
